These results are taken from doi:10.1101/402123 (bioRxiv, 2018).

T1: β4-FnIII-3,4 (1457-1666) mutant T1663R (human, UniProt P16144-2 1457-1666, T1663R)
T1 sequence (looked up): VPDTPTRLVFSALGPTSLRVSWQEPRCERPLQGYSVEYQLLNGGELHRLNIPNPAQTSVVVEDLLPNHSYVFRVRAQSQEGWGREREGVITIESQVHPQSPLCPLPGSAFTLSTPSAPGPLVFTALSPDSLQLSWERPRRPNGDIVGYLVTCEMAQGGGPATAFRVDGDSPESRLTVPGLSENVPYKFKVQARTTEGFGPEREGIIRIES

T2: fluorescein-labeled BP230 peptide 37-55 (human, UniProt Q03001-8 37-55)
T2 peptide (looked up): fluorescein-GPTLINSCISFGSESFDGH

T3: BP230 10-162 T39D (human, UniProt Q03001-8 10-162, T39D, Oregon Green 488 on thiol groups)
T3 sequence (looked up): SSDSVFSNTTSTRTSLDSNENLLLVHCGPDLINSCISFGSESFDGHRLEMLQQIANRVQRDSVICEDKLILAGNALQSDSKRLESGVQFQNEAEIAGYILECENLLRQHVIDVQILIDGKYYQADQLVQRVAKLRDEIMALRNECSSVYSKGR

T4: BP230 41-162 (human, UniProt Q03001-8 41-162, Oregon Green 488 on thiol groups)
T4 sequence (looked up): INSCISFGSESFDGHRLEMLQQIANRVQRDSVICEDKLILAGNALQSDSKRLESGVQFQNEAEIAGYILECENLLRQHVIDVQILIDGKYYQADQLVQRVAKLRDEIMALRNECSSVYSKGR

T5: β4-CS-FnIII-3,4 (1436-1666) T1663R (human, UniProt P16144-2 1436-1666, T1663R)
T5 sequence (looked up): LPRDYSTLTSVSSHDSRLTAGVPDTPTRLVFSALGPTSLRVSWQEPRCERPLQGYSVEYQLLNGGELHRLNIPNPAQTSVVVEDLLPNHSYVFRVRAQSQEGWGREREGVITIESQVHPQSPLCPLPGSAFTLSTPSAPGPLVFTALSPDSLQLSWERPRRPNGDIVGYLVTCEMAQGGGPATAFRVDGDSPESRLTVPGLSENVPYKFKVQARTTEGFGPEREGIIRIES

B1: integrin β4 1436-1666 (β4-CS-FnIII-3,4) (domain or fragment, human, UniProt P16144-2 1436-1666, looked up)
chain: T5 sequence (looked up) with R228T
B2: fluorescein-labeled BP230 peptide 26-55 (peptide, UniProt Q03001-8 26-55, looked up)
peptide: fluorescein-DSNENLLLVHCGPTLINSCISFGSESFDGH
modifications: cysteine pairing not given here
B3: β4-CS-FnIII-3,4 (1436-1666) P1576R (domain or fragment, human, UniProt P16144-2 1436-1666, looked up)
chain: T5 sequence (looked up) with P141R, R228T
B4: BP230 10-162 S46A (domain or fragment, human, UniProt Q03001-8 10-162, looked up)
chain: T3 sequence (looked up) with D30T, S37A
modifications: Oregon Green 488 on thiol groups
B5: β4-CS-FnIII-3,4 (1436-1666) I1661R/T1663R (domain or fragment, human, UniProt P16144-2 1436-1666, looked up)
chain: T5 sequence (looked up) with I226R

Where a chain is given by its changes, count along the chain named. Names and notes keep the numbering of the source. No end group written: not given here. fluorescein = N-terminal fluorescein label

Test [1] concerns the target T1, β4-FnIII-3,4 (1457-1666) mutant T1663R. Nature of the test: crystal structure.
The target of test [2] is fluorescein-labeled BP230 peptide 26-47 (human) (UniProt Q03001). Nature of the test: fluorescence polarisation.
In test [3] the target is T2, fluorescein-labeled BP230 peptide 37-55. Nature of the test: fluorescence polarisation.
For test [4], the target named is T3, BP230 10-162 T39D. Nature of the test: fluorescence polarisation.
The target of test [5] is T4, BP230 41-162. Nature of the test: fluorescence polarisation.
Test [6] deals with T5, β4-CS-FnIII-3,4 (1436-1666) T1663R. Nature of the test: fluorescence polarisation.
Test [7] has as its target B2. Nature of the test: fluorescence polarisation.
In test [8] the target is B1. Nature of the test: fluorescence polarisation.

Consider DSNENLLLVHCGPTLINSCISFGSESFDGH (peptide, UniProt Q03001-8 26-55, looked up) [unlabeled BP230 peptide 26-55], for which the binding result in test [1] is recorded as “binds”. On to B1, for which the fold increase in Kd against the BP230 26-55 peptide in test [2] was 5 fold; in test [3] it was 3 fold. In test [4], the “fold increase in Kd against WT BP230 10-162” value is around 3 fold. Also, the “fold increase in Kd against the longer BP230 constructs” value in test [5] amounted to 5 fold. B2: in test [6], the binding result is given as “binds”. Take B3: the “fold increase in Kd against WT β4” value in test [7] is above 2 fold. As for B4, in test [8], the binding result was “binds”. On to B5, for which the “fold reduction in Kd against WT β4” value in test [7] is around 8 fold.
